Assay results from patent US20260184814A1, “BROADLY NE[…] INFLUENZA NEURAMINIDASE” (priority 2022, published 2026).

Assays:
[1] = target: N2 A/HongKong/2671/2019 N245S (Influenza A virus (H3N2))
[2] = target: N2 A/Switzerland/8060/2017 N245S (Influenza A virus (H3N2))
[3] = target: N2 A/Tanzania/205/2010 S245N 247T (Influenza A virus (H3N2))

1G01 Fab
Kd [1]: 375 nM
Kd [2]: 398 nM
Kd [3]: < 0.02 nM
